Laboratory results taken from publication PMC7616283 (Nature cardiovascular research, 2024).
Read-outs that look alike come from different tables or passages of the source.

T1: human CCR4 carried on liposomes (human, UniProt P51679 1-360)
T1 sequence (looked up): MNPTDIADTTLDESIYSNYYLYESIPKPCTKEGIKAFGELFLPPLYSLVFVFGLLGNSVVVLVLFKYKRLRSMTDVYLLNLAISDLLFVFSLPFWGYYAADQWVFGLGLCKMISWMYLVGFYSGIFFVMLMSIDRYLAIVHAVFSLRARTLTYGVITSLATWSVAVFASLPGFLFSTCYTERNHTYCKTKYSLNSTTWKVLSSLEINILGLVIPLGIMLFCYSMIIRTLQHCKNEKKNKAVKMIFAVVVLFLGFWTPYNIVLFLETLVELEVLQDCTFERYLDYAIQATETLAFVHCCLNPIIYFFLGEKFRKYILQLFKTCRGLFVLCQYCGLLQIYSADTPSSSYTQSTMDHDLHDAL

B1: biotinylated human recombinant CCL17 (ligand, UniProt Q92583 24-94, looked up)
chain: ARGTNVGRECCLEYFKGAIPLRKLKTWYQTSEDCSRDAIVFVTVQGRAICSDPNNKRVKNAVKYLQSLERS
modifications: biotin (biotinylated; site not stated)
B2: unlabeled human recombinant CCL17 (ligand, UniProt Q92583 24-94, looked up)
chain: B1 chain
B3: unlabeled human recombinant CCL1 (ligand, UniProt P22362 24-96, looked up)
chain: KSMQVPFSRCCFSFAEQEIPLRAILCYRNTSSICSNEGLIFKLKRGKEACALDTVGWVQRHRKMLRHCPSKRK

Assays:
[1] = target: T2, human CCR8 carried on proteoliposomes (human, UniProt P51685 1-355); assay: SPR
[2] = target: T2, human CCR8 carried on proteoliposomes; assay: SPR; remark: listed apart in the source
[3] = target: T1, human CCR4 carried on liposomes; assay: SPR
[4] = target: T3, human CCR8 (HA-tagged) on stably transfected HEK293 cells (human, UniProt P51685 1-355); assay: flow cytometry on cells
[5] = target: T3, human CCR8 (HA-tagged) on stably …; assay: flow cytometry on cells; remark: listed apart in the source

| Binder | Kd [1] [nM] | Kd [2] [nM] | koff [2] [s⁻¹] | binding result [3] | IC50 [4] [nM] | IC50 [5] [nM] |
| --- | --- | --- | --- | --- | --- | --- |
| B1 | 11.7 | 1.1 ± 0.4 | 0.00042 | binds | – | – |
| B2 | – | – | – | – | 9.4 | 4.9 |
| B3 | – | – | – | – | – | 0.58 |
